In paper PMC8358021:

Columns and labels:
[1] = target: AbApeR (FabB-like homodimeric ketosynthase of the A. baumannii APE gene cluster) (Acinetobacter baumannii); assay: ITC; 2.0 mM holo ACP1 or holo ACP2 injected (19 injections of 3 µl) into 0.1 mM AbApeO-AbApeC or AbApeR; 25 °C; 40 mM potassium phosphate pH 7.0; 2 mM 2-mercaptoethanol
[2] = target: AbApeO-AbApeC heterodimer (ketosynthase-chain length factor complex of the aryl polyene biosynthesis gene cluster of Acinetobacter baumannii) (Acinetobacter baumannii); assay: as above

## holo ACP1 (ApeE), acyl carrier protein 1 of the A. baumannii APE gene cluster (natural protein)
[1]
  Kd: 18 µM
  stoichiometry N: 1.55
[2]
  Kd: 74 nM
  stoichiometry N: 1.63
